Test results reported in patent publication US20240287154A1, “MC3R AGONIST PEPTIDES” (The Regents of the University of Michigan, priority 2021, published 2024).
Non-standard residues stand in square brackets, D forms with d. Phe(4-Br) = N[C@@H](Cc1ccc(Br)cc1)C(=O)O; Phe(4-Cl) = N[C@@H](Cc1ccc(Cl)cc1)C(=O)O; Phe(4-I) = N[C@@H](Cc1ccc(I)cc1)C(=O)O; NMeY = CN[C@@H](Cc1ccc(O)cc1)C(=O)O; Nle = CCCC[C@H](N)C(=O)O; dAbu = CC[C@@H](N)C(=O)O; Aib = CC(C)(N)C(=O)O

B1: CTX-1143 (peptide)
peptide: Ac-[Nle][Aib]HFR[dW]DRFG-OH
SMILES: CCCC[C@H](NC(C)=O)C(=O)NC(C)(C)C(=O)N[C@@H](Cc1c[nH]cn1)C(=O)N[C@@H](Cc1ccccc1)C(=O)N[C@@H](CCCNC(=N)N)C(=O)N[C@H](Cc1c[nH]c2ccccc12)C(=O)N[C@@H](CC(=O)O)C(=O)N[C@@H](CCCNC(=N)N)C(=O)N[C@@H](Cc1ccccc1)C(=O)NCC(=O)O
B2: CTX-1169 (peptide)
peptide: Ac-[Nle][dA]H[Phe(4-I)]R[dW]DRF-NH2
SMILES: CCCC[C@H](NC(C)=O)C(=O)N[C@H](C)C(=O)N[C@@H](Cc1c[nH]cn1)C(=O)N[C@@H](Cc1ccc(I)cc1)C(=O)N[C@@H](CCCNC(=N)N)C(=O)N[C@H](Cc1c[nH]c2ccccc12)C(=O)N[C@@H](CC(=O)O)C(=O)N[C@@H](CCCNC(=N)N)C(=O)N[C@@H](Cc1ccccc1)C(N)=O
B3: CTX-1145 (peptide)
peptide: Ac-[Nle][dA]HFR[dW]DR[dF]G-OH
SMILES: CCCC[C@H](NC(C)=O)C(=O)N[C@H](C)C(=O)N[C@@H](Cc1c[nH]cn1)C(=O)N[C@@H](Cc1ccccc1)C(=O)N[C@@H](CCCNC(=N)N)C(=O)N[C@H](Cc1c[nH]c2ccccc12)C(=O)N[C@@H](CC(=O)O)C(=O)N[C@@H](CCCNC(=N)N)C(=O)N[C@H](Cc1ccccc1)C(=O)NCC(=O)O
B4: CTX-1167 (peptide)
peptide: Ac-[Nle][dA]H[Phe(4-I)]R[dW]DRFG-OH
SMILES: CCCC[C@H](NC(C)=O)C(=O)N[C@H](C)C(=O)N[C@@H](Cc1c[nH]cn1)C(=O)N[C@@H](Cc1ccc(I)cc1)C(=O)N[C@@H](CCCNC(=N)N)C(=O)N[C@H](Cc1c[nH]c2ccccc12)C(=O)N[C@@H](CC(=O)O)C(=O)N[C@@H](CCCNC(=N)N)C(=O)N[C@@H](Cc1ccccc1)C(=O)NCC(=O)O
B5: CTX-1108 (peptide)
peptide: H-YV[Nle][dA]HFR[dW]D-NH2
SMILES: CCCC[C@H](NC(=O)[C@@H](NC(=O)[C@@H](N)Cc1ccc(O)cc1)C(C)C)C(=O)N[C@H](C)C(=O)N[C@@H](Cc1c[nH]cn1)C(=O)N[C@@H](Cc1ccccc1)C(=O)N[C@@H](CCCNC(=N)N)C(=O)N[C@H](Cc1c[nH]c2ccccc12)C(=O)N[C@@H](CC(=O)O)C(N)=O
B6: CTX-1160 (peptide)
peptide: Ac-[Nle][dA]HFR[dW]DR[dF]K-OH
SMILES: CCCC[C@H](NC(C)=O)C(=O)N[C@H](C)C(=O)N[C@@H](Cc1c[nH]cn1)C(=O)N[C@@H](Cc1ccccc1)C(=O)N[C@@H](CCCNC(=N)N)C(=O)N[C@H](Cc1c[nH]c2ccccc12)C(=O)N[C@@H](CC(=O)O)C(=O)N[C@@H](CCCNC(=N)N)C(=O)N[C@H](Cc1ccccc1)C(=O)N[C@@H](CCCCN)C(=O)O
B7: CTX-1158 (peptide)
peptide: Ac-[Nle][dA]HFR[dW]DRF-NH2
SMILES: CCCC[C@H](NC(C)=O)C(=O)N[C@H](C)C(=O)N[C@@H](Cc1c[nH]cn1)C(=O)N[C@@H](Cc1ccccc1)C(=O)N[C@@H](CCCNC(=N)N)C(=O)N[C@H](Cc1c[nH]c2ccccc12)C(=O)N[C@@H](CC(=O)O)C(=O)N[C@@H](CCCNC(=N)N)C(=O)N[C@@H](Cc1ccccc1)C(N)=O
B8: CTX-1163 (peptide)
peptide: Ac-[Nle][dA]HFR[dW]DR-NH2
SMILES: CCCC[C@H](NC(C)=O)C(=O)N[C@H](C)C(=O)N[C@@H](Cc1c[nH]cn1)C(=O)N[C@@H](Cc1ccccc1)C(=O)N[C@@H](CCCNC(=N)N)C(=O)N[C@H](Cc1c[nH]c2ccccc12)C(=O)N[C@@H](CC(=O)O)C(=O)N[C@@H](CCCNC(=N)N)C(N)=O
B9: CTX-1141 (peptide)
peptide: H-[NMeY]V[Nle][dA]HFR[dW]D-NH2
SMILES: CCCC[C@H](NC(=O)[C@@H](NC(=O)[C@H](Cc1ccc(O)cc1)NC)C(C)C)C(=O)N[C@H](C)C(=O)N[C@@H](Cc1c[nH]cn1)C(=O)N[C@@H](Cc1ccccc1)C(=O)N[C@@H](CCCNC(=N)N)C(=O)N[C@H](Cc1c[nH]c2ccccc12)C(=O)N[C@@H](CC(=O)O)C(N)=O
B10: CTX-1170 (peptide)
peptide: Ac-[Nle][dA]H[Phe(4-I)]R[dW]DR-NH2
SMILES: CCCC[C@H](NC(C)=O)C(=O)N[C@H](C)C(=O)N[C@@H](Cc1c[nH]cn1)C(=O)N[C@@H](Cc1ccc(I)cc1)C(=O)N[C@@H](CCCNC(=N)N)C(=O)N[C@H](Cc1c[nH]c2ccccc12)C(=O)N[C@@H](CC(=O)O)C(=O)N[C@@H](CCCNC(=N)N)C(N)=O
B11: CTX-1166 (peptide)
peptide: Ac-[Nle][dA]H[Phe(4-Cl)]R[dW]DRFG-OH
SMILES: CCCC[C@H](NC(C)=O)C(=O)N[C@H](C)C(=O)N[C@@H](Cc1c[nH]cn1)C(=O)N[C@@H](Cc1ccc(Cl)cc1)C(=O)N[C@@H](CCCNC(=N)N)C(=O)N[C@H](Cc1c[nH]c2ccccc12)C(=O)N[C@@H](CC(=O)O)C(=O)N[C@@H](CCCNC(=N)N)C(=O)N[C@@H](Cc1ccccc1)C(=O)NCC(=O)O
B12: CTX-1159 (peptide)
peptide: Ac-[Nle][dA]HFR[dW]DR[dF]-NH2
SMILES: CCCC[C@H](NC(C)=O)C(=O)N[C@H](C)C(=O)N[C@@H](Cc1c[nH]cn1)C(=O)N[C@@H](Cc1ccccc1)C(=O)N[C@@H](CCCNC(=N)N)C(=O)N[C@H](Cc1c[nH]c2ccccc12)C(=O)N[C@@H](CC(=O)O)C(=O)N[C@@H](CCCNC(=N)N)C(=O)N[C@H](Cc1ccccc1)C(N)=O
B13: CTX-1105 (peptide)
peptide: H-YVEGHFR[dW]DRFG-NH2
SMILES: CC(C)[C@H](NC(=O)[C@@H](N)Cc1ccc(O)cc1)C(=O)N[C@@H](CCC(=O)O)C(=O)NCC(=O)N[C@@H](Cc1c[nH]cn1)C(=O)N[C@@H](Cc1ccccc1)C(=O)N[C@@H](CCCNC(=N)N)C(=O)N[C@H](Cc1c[nH]c2ccccc12)C(=O)N[C@@H](CC(=O)O)C(=O)N[C@@H](CCCNC(=N)N)C(=O)N[C@@H](Cc1ccccc1)C(=O)NCC(N)=O
B14: CTX-1164 (peptide)
peptide: Ac-[Nle][dA]HFR[dW]GKPV-NH2
SMILES: CCCC[C@H](NC(C)=O)C(=O)N[C@H](C)C(=O)N[C@@H](Cc1c[nH]cn1)C(=O)N[C@@H](Cc1ccccc1)C(=O)N[C@@H](CCCNC(=N)N)C(=O)N[C@H](Cc1c[nH]c2ccccc12)C(=O)NCC(=O)N[C@@H](CCCCN)C(=O)N1CCC[C@H]1C(=O)N[C@H](C(N)=O)C(C)C
B15: CTX-1165 (peptide)
peptide: Ac-[Nle][dA]H[Phe(4-Br)]R[dW]DRFG-OH
SMILES: CCCC[C@H](NC(C)=O)C(=O)N[C@H](C)C(=O)N[C@@H](Cc1c[nH]cn1)C(=O)N[C@@H](Cc1ccc(Br)cc1)C(=O)N[C@@H](CCCNC(=N)N)C(=O)N[C@H](Cc1c[nH]c2ccccc12)C(=O)N[C@@H](CC(=O)O)C(=O)N[C@@H](CCCNC(=N)N)C(=O)N[C@@H](Cc1ccccc1)C(=O)NCC(=O)O
B16: CTX-1144 (peptide)
peptide: Ac-[Nle][dAbu]HFR[dW]DRFG-OH
SMILES: CCCC[C@H](NC(C)=O)C(=O)N[C@H](CC)C(=O)N[C@@H](Cc1c[nH]cn1)C(=O)N[C@@H](Cc1ccccc1)C(=O)N[C@@H](CCCNC(=N)N)C(=O)N[C@H](Cc1c[nH]c2ccccc12)C(=O)N[C@@H](CC(=O)O)C(=O)N[C@@H](CCCNC(=N)N)C(=O)N[C@@H](Cc1ccccc1)C(=O)NCC(=O)O

Target: human MC3R (human, UniProt P41968 1-323)
Experiment: cell-based or functional assay

human MC3R, sequence (P41968 whole entry): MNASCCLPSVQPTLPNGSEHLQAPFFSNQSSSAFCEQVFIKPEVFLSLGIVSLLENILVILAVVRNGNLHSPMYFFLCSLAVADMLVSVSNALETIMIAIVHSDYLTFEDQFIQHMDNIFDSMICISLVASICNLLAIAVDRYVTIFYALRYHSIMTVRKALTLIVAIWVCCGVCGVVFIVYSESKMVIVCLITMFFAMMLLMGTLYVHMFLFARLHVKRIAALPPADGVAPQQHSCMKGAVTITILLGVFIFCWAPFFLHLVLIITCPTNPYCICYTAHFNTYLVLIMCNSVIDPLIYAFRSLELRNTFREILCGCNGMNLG

First: YVXAHFRWDRFG (Nle at 3; D-Ala at 4; D-Trp at 8) [CTX-1103]
Second: YVXAHFRWDRFG (Nle at 3; D-Ala at 4; Phe(4-Cl) at 6; D-Trp at 8) [CTX-2121]
The “MC3R cAMP (EC50)” value of the first is 1.7-fold higher: 4.3 nM for the first, 2.5 nM for the second.

Going from B1 to YVXAHFRWDRFG (Nle at 3; D-Ala at 4; D-Trp at 8; D-Phe at 11) [CTX-1127], the “MC3R cAMP (EC50)” value falls from 13.4 nM to 2.5 nM (5.4-fold).

Compared with B2, B3 is 11-fold higher in “MC3R cAMP (EC50)” value: 4.8 nM for the first, 52.9 nM for the second.

Going from B4 to YVXAHFRWDRFG (Nle at 3; D-Ala at 4; D-Trp at 8; D-Arg at 10) [CTX-1126], the “MC3R cAMP (EC50)” value falls from 4.8 nM to 3 nM (1.6-fold).

B5 and B6 are within 1.5-fold of each other in “MC3R cAMP (EC50)” value: 12 nM for the first, 9.8 nM for the second.

Going from B7 to B8, the “MC3R cAMP (EC50)” value rises from 2.6 nM to 19.4 nM (7.5-fold).

YVXAHFRWDRFG (Nle at 3; D-Ala at 4; Phe(4-I) at 6; D-Trp at 8) [CTX-2122] and B9 are within 1.5-fold of each other in “MC3R cAMP (EC50)” value: 3.2 nM for the first, 2.2 nM for the second.

First: B10
Second: B11
The “MC3R cAMP (EC50)” value of the first is 16-fold higher: 26 nM for the first, 1.6 nM for the second.

B12 and B13 are within 1.5-fold of each other in “MC3R cAMP (EC50)” value: 14.3 nM for the first, 20 nM for the second.

First: B14
Second: B15
The “MC3R cAMP (EC50)” value of the first is 2-fold lower: 1.5 nM for the first, 3 nM for the second.

Compared with YVXAHFRWDRFG (Nle at 3; D-Ala at 4; Phe(4-Br) at 6; D-Trp at 8) [CTX-2120], B16 is 2.9-fold higher in “MC3R cAMP (EC50)” value: 2.3 nM for the first, 6.6 nM for the second.

Going from YVXAHFRWDRFG (Nle at 3; D-Ala at 4; D-Trp at 8) [CTX-1103] to YVXAHFRWDRFG (Nle at 3; D-Ala at 4; Phe(4-Cl) at 6; D-Trp at 8) [CTX-2121], the “MC3R selectivity (relative to MC4R)” value falls from 229 to 93.

Going from B1 to YVXAHFRWDRFG (Nle at 3; D-Ala at 4; D-Trp at 8; D-Phe at 11) [CTX-1127], the “MC3R selectivity (relative to MC4R)” value falls from 3540 to 95.

First: B2
Second: B3
The “MC3R selectivity (relative to MC4R)” value of the first is lower: 200 for the first, 535 for the second.

First: B4
Second: YVXAHFRWDRFG (Nle at 3; D-Ala at 4; D-Trp at 8; D-Arg at 10) [CTX-1126]
The “MC3R selectivity (relative to MC4R)” value of the first is higher: 937 for the first, 43 for the second.

Compared with B5, B6 is higher in “MC3R selectivity (relative to MC4R)” value: 79 for the first, 1260 for the second.

Compared with B7, B8 is lower in “MC3R selectivity (relative to MC4R)” value: 535 for the first, 282 for the second.

First: YVXAHFRWDRFG (Nle at 3; D-Ala at 4; Phe(4-I) at 6; D-Trp at 8) [CTX-2122]
Second: B9
The “MC3R selectivity (relative to MC4R)” value of the first is higher: 324 for the first, 55 for the second.

Going from B10 to B11, the “MC3R selectivity (relative to MC4R)” value rises from 67 to 3100.

Compared with B12, B13 is higher in “MC3R selectivity (relative to MC4R)” value: 213 for the first, 500 for the second.

First: B14
Second: B15
The “MC3R selectivity (relative to MC4R)” value of the first is lower: 83 for the first, 5600 for the second.

Compared with YVXAHFRWDRFG (Nle at 3; D-Ala at 4; Phe(4-Br) at 6; D-Trp at 8) [CTX-2120], B16 is higher in “MC3R selectivity (relative to MC4R)” value: 173 for the first, 2630 for the second.
